Source: PMC12952242

Legend:
ZNF207 full-length K42E = experiment: EMSA
ZNF207 full-length WT = experiment: EMSA

U1 snRNA
Kd (ZNF207 full-length K42E): 60.4 nM | Kd (ZNF207 full-length WT): 48.7 nM
